Molecular target: T1, RUVBL2-His (human, UniProt Q9Y230 1-463)
T1 construct: RUVBL2, AAA+ ATPase; cDNA amplified from a Mammalian Gene Collection clone, cloned into pET-23a+; also called polyhistidine-tagged RUVBL2; source: E. coli One Shot BL21 Star DE3, purified (Ni-NTA agarose)
Assay: pull-down; 500 ng GST-tagged protein with 100 ng His-tagged protein and glutathione beads in 1 ml binding buffer (50 mM NaCl, 50 mM HEPES-KOH pH 7.6, 0.1% NP-40), 2 h at 4 °C; in presence of ATP, ADP or γ-S-ATP; immunoblot
Conditions: both partners purified

T1 sequence (Q9Y230 whole entry): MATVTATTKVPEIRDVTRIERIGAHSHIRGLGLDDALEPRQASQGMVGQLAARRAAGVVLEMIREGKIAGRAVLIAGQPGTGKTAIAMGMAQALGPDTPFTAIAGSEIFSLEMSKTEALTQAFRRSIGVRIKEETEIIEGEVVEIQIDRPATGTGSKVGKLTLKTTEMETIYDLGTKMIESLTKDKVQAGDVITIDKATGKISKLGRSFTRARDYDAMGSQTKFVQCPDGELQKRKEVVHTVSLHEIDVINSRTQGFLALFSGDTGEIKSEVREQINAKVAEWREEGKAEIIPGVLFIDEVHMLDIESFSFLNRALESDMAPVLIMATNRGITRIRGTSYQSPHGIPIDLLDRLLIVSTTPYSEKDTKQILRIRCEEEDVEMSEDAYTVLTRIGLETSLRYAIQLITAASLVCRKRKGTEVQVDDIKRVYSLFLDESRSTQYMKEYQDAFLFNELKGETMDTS

binding result: binds
B1: GST-ZNHIT2 (full-length) (natural protein, human, UniProt Q9UHR6 1-403, looked up)
chain: MEPAGPCGFCPAGEVQPARYTCPRCNAPYCSLRCYRTHGTCAENFYRDQVLGELRGCSAPPSRLASALRRLRQQRETEDEPGEAGLSSGPAPGGLSGLWERLAPGEKAAFERLLSRGEAGRLLPPWRPWWWNRGAGPQLLEELDNAPGSDAAELELAPARTPPDSVKDASAAEPAAAERVLGDVPGACTPVVPTRIPAIVSLSRGPVSPLVRFQLPNVLFAYAHTLALYHGGDDALLSDFCATLLGVSGALGAQQVFASAEEALQAAAHVLEAGEHPPGPLGTRGAMHEVARILLGEGPTNQKGYTLAALGDLAQTLGRARKQAVAREERDHLYRARKKCQFLLAWTNENEAALTPLALDCARAHQAHAVVAEEVAALTGELERLWGGPVPPAPRTLIEELPS
notes: ZNHIT2, human ZNHIT family member; cDNA amplified from a Mammalian Gene Collection clone, cloned into pGEX-4T-1; also called GST-tagged ZNHIT2; source: E. coli One Shot BL21 Star DE3, purified (Glutathione Sepharose 4B)
